Data published in patent US20110300138A1 (published 2011).
Where two headings read alike, the source gives them in different places.

Legend:
[1] = target: human TSH receptor (full length, wild type) expressed in CHO cells (human) (UniProt P16473); test: cell-based or functional assay
[2] = target: human TSHR (wild type, full length) expressed in CHO cells (human) (UniProt P16473); test: cell-based or functional assay
[3] = target: human TSH receptor (TSHR), wild type, expressed in CHO cells (human) (UniProt P16473); test: cell-based or functional assay
[4] = target: human TSH receptor (full length, wild type) expressed in CHO cells (human) (UniProt P16473); test: cell-based or functional assay; remark: listed apart in the source
[5] = target: human TSH receptor (full length, wild type) expressed on CHO cells (human) (UniProt P16473); test: cell-based or functional assay
[6] = target: human TSH receptor (wild type), expressed on transfected CHO cells (human) (UniProt P16473); test: cell-based or functional assay
[7] = target: human TSHR (thyroid stimulating hormone receptor) expressed in transfected CHO cells (human) (UniProt P16473); test: cell-based or functional assay
[8] = target: human TSHR (wild type, full length) expressed in CHO cells (human) (UniProt P16473); test: cell-based or functional assay; remark: listed apart in the source
[9] = target: human TSHR expressed in CHO cells (human) (UniProt P16473); test: cell-based or functional assay
[10] = target: TSHR260-alkaline phosphatase (TSHR260-AP) (human) (UniProt P05187); test: TSHR260-AP bridge ELISA, full length TSHR on wells; 250 µg/mL, diluted in HBD
[11] = target: TSHR260-alkaline phosphatase (TSHR260-AP) (human) (UniProt P05187); test: TSHR260-AP bridge ELISA, full length TSHR on wells; 0.01 µg/mL, diluted in HBD
[12] = target: TSHR260-alkaline phosphatase (TSHR260-AP) (human) (UniProt P05187); test: TSHR260-AP bridge ELISA, full length TSHR on wells; 0.05 µg/mL, diluted in HBD
[13] = target: TSHR260-alkaline phosphatase (TSHR260-AP) (human) (UniProt P05187); test: TSHR260-AP bridge ELISA, full length TSHR on wells; 10 µg/mL, diluted in assay buffer
[14] = target: TSHR260-alkaline phosphatase (TSHR260-AP) (human) (UniProt P05187); test: TSHR260-AP bridge ELISA, full length TSHR on wells; 0.1 µg/mL, diluted in assay buffer
TSHR260-AP (human) [15] = test: TSHR260-AP bridge ELISA (full length TSHR on wells, TSHR260-AP in solution); IgG 10 µg/mL diluted in HBD serum
TSHR260-AP (human) [16] = test: TSHR260-AP bridge ELISA (full length TSHR on wells, TSHR260-AP in solution); IgG 0.05 µg/mL diluted in HBD serum
TSHR260-AP (human) [17] = test: TSHR260-AP bridge ELISA (full length TSHR on wells, TSHR260-AP in solution); IgG 0.5 µg/mL diluted in assay buffer
TSHR260-AP (human) [18] = test: TSHR260-AP bridge ELISA (full length TSHR on wells, TSHR260-AP in solution); IgG 250 µg/mL diluted in assay buffer
TSHR260-AP (human) [19] = test: TSHR260-AP bridge ELISA (full length TSHR on wells, TSHR260-AP in solution); IgG 0.01 µg/mL diluted in assay buffer

- % Inhibition; T10 serum + 100 µg/mL 5B3 IgG [1]: 0%
- % Inhibition; T11 serum + 100 µg/mL 5B3 IgG [1]: 3.2%
- % Inhibition; T12 serum + 100 µg/mL 5B3 IgG [1]: 0%
- Cyclic AMP concentration; 100 µg/mL 5B3 IgG alone [1]: 2 pmol/mL
- Cyclic AMP concentration; HBD + 100 µg/mL 5B3 IgG [1]: 2.4 pmol/mL
- Cyclic AMP concentration; T10 serum + 100 µg/mL 5B3 IgG [1]: 59.3 pmol/mL
- Cyclic AMP concentration; T11 serum + 100 µg/mL 5B3 IgG [1]: 39.7 pmol/mL
- Cyclic AMP concentration; T12 serum + 100 µg/mL 5B3 IgG [1]: 43.3 pmol/mL
- % Inhibition of T13 serum stimulation; 100 µg/mL 5B3 IgG [2]: 22.5%
- % Inhibition of T14 serum stimulation; 100 µg/mL 5B3 IgG [2]: 24.6%
- % Inhibition of T15 serum stimulation; 100 µg/mL 5B3 IgG [2]: 18.3%
- Cyclic AMP concentration; 100 µg/mL 5B3 IgG alone [2]: 4.1 pmol/mL
- Cyclic AMP concentration; HBD + 100 µg/mL 5B3 IgG [2]: 5.1 pmol/mL
- Cyclic AMP concentration; T13 serum + 100 µg/mL 5B3 IgG [2]: 37.6 pmol/mL
- Cyclic AMP concentration; T14 serum + 100 µg/mL 5B3 IgG [2]: 20.5 pmol/mL
- Cyclic AMP concentration; T15 serum + 100 µg/mL 5B3 IgG [2]: 41.9 pmol/mL
- Cyclic AMP concentration in hypotonic medium; 1 µg/mL 5B3 IgG + 3 ng/mL pTSH [3]: 71.9 pmol/mL
- Cyclic AMP concentration in hypotonic medium; 3 µg/mL 5B3 IgG + 3 ng/mL pTSH [3]: 75.7 pmol/mL
- Cyclic AMP concentration in hypotonic medium; 3 µg/mL 5B3 IgG alone [3]: 1.9 pmol/mL
- Cyclic AMP concentration in isotonic medium; 1 µg/mL 5B3 IgG + 3 ng/mL pTSH [3]: 39.5 pmol/mL
- Cyclic AMP concentration in isotonic medium; 3 µg/mL 5B3 IgG + 3 ng/mL pTSH [3]: 42.5 pmol/mL
- Cyclic AMP concentration in isotonic medium; 3 µg/mL 5B3 IgG alone [3]: 0.5 pmol/mL
- % Inhibition; T1 serum + 100 µg/mL 5B3 IgG [4]: 4.9%
- % Inhibition; T2 serum + 100 µg/mL 5B3 IgG [4]: 0%
- % Inhibition; T3 serum + 100 µg/mL 5B3 IgG [4]: 14.4%
- Cyclic AMP concentration; 100 µg/mL 5B3 IgG alone [4]: 1 pmol/mL
- Cyclic AMP concentration; HBD + 100 µg/mL 5B3 IgG [4]: 2 pmol/mL
- Cyclic AMP concentration; T1 serum + 100 µg/mL 5B3 IgG [4]: 94.9 pmol/mL
- Cyclic AMP concentration; T2 serum + 100 µg/mL 5B3 IgG [4]: 62 pmol/mL
- Cyclic AMP concentration; T3 serum + 100 µg/mL 5B3 IgG [4]: 54.2 pmol/mL
- % Inhibition of M22 IgG (3 ng/mL) stimulation; 100 µg/ml 5B3 IgG [5]: 0%
- % Inhibition of pTSH (1 ng/mL) stimulation; 10 µg/mL 5B3 IgG [5]: 0%
- % Inhibition of pTSH (1 ng/mL) stimulation; 100 µg/mL 5B3 IgG [5]: 0%
- Cyclic AMP concentration in hypotonic medium; 100 µg/mL 5B3 IgG alone [5]: 2.2 pmol/mL
- Cyclic AMP concentration in isotonic medium; 100 µg/mL 5B3 IgG alone [5]: 1.4 pmol/mL
- Cyclic AMP concentration; 1 ng/mL pTSH + 10 µg/mL 5B3 IgG [5]: 80.7 pmol/mL
- Cyclic AMP concentration; 1 ng/mL pTSH + 100 µg/mL 5B3 IgG [5]: 79.3 pmol/mL
- Cyclic AMP concentration; 3 ng/mL M22 IgG + 100 µg/ml 5B3 IgG [5]: 41.8 pmol/mL
- Cyclic AMP concentration; 100 µg/mL 5B3 IgG alone (no TSH) [5]: 2.6 pmol/mL
- Cyclic AMP concentration; 5B3 IgG 100 µg/mL alone [5]: 1.2 pmol/mL
- % Inhibition (constitutive activity); 0.01 µg/mL 5B3 IgG [6]: 0%
- % Inhibition (constitutive activity); 0.1 µg/mL 5B3 IgG [6]: 0%
- % Inhibition (constitutive activity); 0.2 µg/mL 5B3 IgG [6]: 8.2%
- % Inhibition (constitutive activity); 1 µg/mL 5B3 IgG [6]: 6.3%
- % Inhibition (constitutive activity); 2 µg/mL 5B3 IgG [6]: 12.9%
- % Inhibition; 5B3 IgG 0.1 µg/mL + T11 [6]: 29.8%
- % Inhibition; 5B3 IgG 1 µg/mL + T11 [6]: 21.4%
- % Inhibition; 5B3 IgG 10 µg/mL + T11 [6]: 25.4%
- % Inhibition; 5B3 IgG 100 µg/mL + T11 [6]: 27%
- % Inhibition; pTSH 3 ng/mL + 10 µg/mL 5B3 [6]: 0%
- % Inhibition; pTSH 3 ng/mL + 100 µg/mL 5B3 [6]: 0.5%
- Cyclic AMP concentration; 100 µg/mL 5B3 alone [6]: 0.9 pmol/mL
- Cyclic AMP concentration; 5B3 IgG 0.1 µg/mL + T11 [6]: 17.7 pmol/mL
- Cyclic AMP concentration; 5B3 IgG 1 µg/mL + T11 [6]: 19.8 pmol/mL
- Cyclic AMP concentration; 5B3 IgG 10 µg/mL + T11 [6]: 18.8 pmol/mL
- Cyclic AMP concentration; 5B3 IgG 100 µg/mL + T11 [6]: 18.4 pmol/mL
- Cyclic AMP concentration; 5B3 IgG 100 µg/mL alone [6]: 1 pmol/mL
- Cyclic AMP concentration; pTSH 3 ng/mL + 10 µg/mL 5B3 [6]: 66.9 pmol/mL
- Cyclic AMP concentration; pTSH 3 ng/mL + 100 µg/mL 5B3 [6]: 63.9 pmol/mL
- Cyclic AMP production (constitutive activity); 0.01 µg/mL 5B3 IgG [6]: 58.2 pmol/mL
- Cyclic AMP production (constitutive activity); 0.1 µg/mL 5B3 IgG [6]: 58.8 pmol/mL
- Cyclic AMP production (constitutive activity); 0.2 µg/mL 5B3 IgG [6]: 53.3 pmol/mL
- Cyclic AMP production (constitutive activity); 1 µg/mL 5B3 IgG [6]: 54.4 pmol/mL
- Cyclic AMP production (constitutive activity); 2 µg/mL 5B3 IgG [6]: 50.6 pmol/mL
- % Inhibition; 3 ng/mL M22 IgG + 10 µg/mL 5B3 IgG [7]: 0%
- % Inhibition; 3 ng/mL M22 IgG + 100 µg/mL 5B3 IgG [7]: 0%
- Cyclic AMP concentration; 3 ng/mL M22 IgG + 10 µg/mL 5B3 IgG [7]: 44.7 pmol/mL
- Cyclic AMP concentration; 3 ng/mL M22 IgG + 100 µg/mL 5B3 IgG [7]: 51.3 pmol/mL
- Cyclic AMP concentration; 100 µg/mL 5B3 IgG [7]: 2.3 pmol/mL
- % Inhibition of T5 serum stimulation; 0.1 µg/mL 5B3 IgG [8]: 7%
- % Inhibition of T5 serum stimulation; 1 µg/mL 5B3 IgG [8]: 4.1%
- % Inhibition of T5 serum stimulation; 10 µg/mL 5B3 IgG [8]: 3.1%
- % Inhibition of T5 serum stimulation; 100 µg/mL 5B3 IgG [8]: 12.5%
- Cyclic AMP concentration; 0.1 µg/mL 5B3 IgG + T5 [8]: 59.4 pmol/mL
- Cyclic AMP concentration; 1 µg/mL 5B3 IgG + T5 [8]: 61.3 pmol/mL
- Cyclic AMP concentration; 10 µg/mL 5B3 IgG + T5 [8]: 61.9 pmol/mL
- Cyclic AMP concentration; 100 µg/mL 5B3 IgG + T5 [8]: 55.9 pmol/mL
- Cyclic AMP concentration; 100 µg/mL 5B3 IgG alone [8]: 1.1 pmol/mL
- % Inhibition; 3 ng/mL pTSH + 10 µg/mL 5B3 IgG [9]: 7%
- % Inhibition; 3 ng/mL pTSH + 100 µg/mL 5B3 IgG [9]: 7%
- % Inhibition; 5B3 IgG 10 µg/mL + 3 ng/mL pTSH [9]: 0%
- % Inhibition; 5B3 IgG 100 µg/mL + 3 ng/mL pTSH [9]: 0%
- Mean absorbance at 405 nm (absorbance at 405 nm) [10]: 0.012
- Mean absorbance at 405 nm (absorbance at 405 nm) [11]: 0.027
- Mean absorbance at 405 nm (absorbance at 405 nm) [12]: -0.006
- Mean absorbance at 405 nm (absorbance at 405 nm) [13]: -0.014
- Mean absorbance at 405 nm (absorbance at 405 nm) [14]: -0.013
- Mean absorbance at 405 nm (absorbance at 405 nm) (TSHR260-AP (human) [15]): -0.006
- Mean absorbance at 405 nm (absorbance at 405 nm) (TSHR260-AP (human) [16]): -0.006
- Mean absorbance at 405 nm (absorbance at 405 nm) (TSHR260-AP (human) [17]): -0.006
- Mean absorbance at 405 nm (absorbance at 405 nm) (TSHR260-AP (human) [18]): 0.018
- Mean absorbance at 405 nm (absorbance at 405 nm) (TSHR260-AP (human) [19]): 0.012
Substance: 5B3 IgG (antibody)
